The results in this text go back to US11112401B2, “Method for determining the cell mediated immune competence of a subject” (Oxford Immunotec Limited, priority 2016, dated 2021).

In the assay the test system is peripheral blood mononuclear cells (PBMCs). Kind of assay: ELISPOT screening of healthy donor samples with 23 commercially available peptide pools. As to conditions: healthy donors, responsive donors/donors tested in brackets. It counts as cell-based, human.

B1: EBNA-3a Protein: Epstein barr nuclear antigen-3A as protein (number of peptides N/A) (protein, UniProt P12977 1-944, looked up)
Epstein-Barr nuclear antigen 3: MDKDRPGPPALDDNMEEEVPSTSVVQEQVSAGDWENVLIELSDSSSEKEAEDAHLEPAQKGTKRKRVDHDAGGSAPARPMLPPQPDLPGREAILRRFPLDLRTLLQAIGAAATRIDTRAIDQFFGSQISNTEMYIMYAMAIRQAIRDRRRNPASRRDQAKWRLQTLAAGWPMGYQAYSSWMYSYTDHQTTPTFVHLQATLGCTGGRRCHVTFSAGTFKLPRCTPGDRQWLYVQSSVGNIVQSCNPRYSIFFDYMAIHRSLTKIWEEVLTPDQRVSFMEFLGFLQRTDLSYIKSFVSDALGTTSIQTPWIDDNPSTETAQAWNAGFLRGRAYGIDLLRTEGEHVEGATGETREESEDTESDGDDEDLPCIVSRGGPKVKRPPIFIRRLHRLLLMRAGKRTEQGKEVLEKARGSTYGTPRPPVPKPRPEVPQSDETATSHGSAQVPEPPTIHLAAQGMAYPLHEQHGMAPCPVAQAPPTPLPPVSPGDQLPGVFSDGRVACAPVPAPAGPIVRPWEPSLTQAAGQAFAPVRPQHMPVEPVPVPTVALERPVYPKPVRPAPPKIAMQGPGETSGIRRARERWRPAPWTPNPPRSPSQMSVRDRLARLRAEAQVKQASVEVQPPQLTQVSPQQPMEGPLVPEQQMFPGAPFSQVADVVRAPGVPAMQPQYFDLPLIQPISQGAPVAPLRASMGPVPPVPATQPQYFDIPLTEPINQGASAAHFLPQQPMEGPLVPEQWMFPGAALSQSVRPGVAQSQYFDLPLTQPINHGAPAAHFLHQPPMEGPWVPEQWMFQGAPPSQGTDVVQHQLDALGYTLHGLNHPGVPVSPAVNQYHLSQAAFGLPIDEDESGEGSDTSEPCEALDLSIHGRPCPQAPEWPVQEEGGQDATEVLDLSIHGRPRPRTPEWPVQGEGGQNVTGPETRRVVVSAVVHMCQDDEFPDLQDPPDEA
Regarding B1, the “Percentage Responsive (10 spot arbitrary cut off)” value is on record as 13% (19/137.
